From paper PMC5263062 come the findings set out here.

Common to all, as to assay: purified protein
Substrate in data set [1]: CCCCC(=O)O
The settings on record: 10 mM ATP, 4 mM MnSO4, pH 7.5, 37 °C.

Substrate in data set [2]: CC(C)C(=O)O
The settings on record: 10 mM ATP, 4 mM MnSO4, pH 7.5, 37 °C.

Substrate in data set [3]: Nc1ncnc2c1ncn2[C@@H]1O[C@H](COP(=O)(O)OP(=O)(O)OP(=O)(O)O)[C@@H](O)[C@H]1O
The settings on record: 200 mM butyrate, 4 mM MnSO4, pH 7.5, 37 °C, no ADP.

Substrate in data set [4]: CCCC(=O)O
As to conditions: 10 mM ATP, 4 mM MnSO4, pH 7.5, 37 °C.

Substrate in data set [5]: CC(C)CC(=O)O
As to conditions: 10 mM ATP, 4 mM MnSO4, pH 7.5, 37 °C.

B1: LmBuk (Buk, butyrate kinase) (Listeria monocytogenes EGD-e) (protein)
chain: MSFDVLTINPGSTSTKLAVYQGDKVLFEETVRHTMQELADFNNVQEQFDFRWQVLRRVMDAHGYDVKKLQAVVGRGGLLRPVAGGTYMVTEKMIDDLKENKYGEHASNLGAMLAKKLADELTIPSFIVDPVVVDEMQEIARISGNAFVTRKSIFHALNHKAAGRKIAKELGKDYEKMNFVIAHLGGGISVAAHRQGKAVDVNNALDGDGPFSPERSGSLPMNDFLEACFSGKWTKRELHELIVGRGGMISYLGTNSMLEVEAKVQAGEEKAIEAFDAMAYQVSKEIGACSVVLQGKVDAIILTGGLARSELFTSKIIEQTNWITSVIIEPGEDELEALNSGVQRVLAGLEKEKEY
As for B1, the Km (in general, the concentration of substrate that gives half-maximal velocity) in the data set “purified protein [1]” turned out to be 13.1 ± 3.3 mM; in “purified protein [2]”, 7.6 ± 1.3 mM; in the data set “purified protein [4]”, 50.5 ± 5.8 mM; in “purified protein [5]”, 57.1 ± 9.6 mM. The catalytic constant (kcat) (in general, the maximal rate divided by the concentration of active sites) in “purified protein [1]” stood at 1.2 ± 0.0367 s⁻¹; in the data set “purified protein [2]”, 0.395 ± 0.00667 s⁻¹; in “purified protein [4]”, 0.8367 ± 0.00667 s⁻¹; in the data set “purified protein [5]” it was 0.417 s⁻¹. The kcat/Km (as a rule, the turnover number divided by the Michaelis constant) in “purified protein [1]” is 91.7 M⁻¹ s⁻¹; in the data set “purified protein [2]”, 51.7 M⁻¹ s⁻¹; in the data set “purified protein [4]” it was 16.5 M⁻¹ s⁻¹; in “purified protein [5]”, 7.33 M⁻¹ s⁻¹. Moreover, in the data set “purified protein [3]”, the K0.5 is recorded as 3.18 mM.
